The target in the experiment is NOD mouse SIRPα-Fc fusion protein (mouse (NOD strain)) (UniProt P97797). Put plainly: competitive ELISA. For orientation: ELISA stands for enzyme-linked immunosorbent assay.

Where a chain is given by its changes, count along the chain named.

B1: SIRP29-AM4-1 Fab (Fab, V domains shown)
VH: EVQLVESGGGLVQPGGSLRLSCAASGFNISYYFIHWVRQAPGKGLEWVASVYSSFGYTYYADSVKGRFTISADTSKNTAYLQMNSLRAEDTAVYYCARFTFPGAMDGFFGAYLGSLDYWGQGTLVTVSS
VL: DIQMTQSPSSLSASVGDRVTITCRASQSVSSAVAWYQQKPGKAPKLLIYSASSLYSGVPSRFSGSRSGTDFTLTISSLQPEDFATYYCQQAVNWVGALVTFGQGTKVEIK
Turning to B1, the fold improvement in affinity against parent 29-AM3-35 was found to be 2 fold.

B2: SIRP29-AM4-5 Fab (Fab, V domains shown)
VH: B1 VH with A104L, M105F
VL: B1 VL
For the molecule B2, the fold improvement in affinity against parent 29-AM3-35 came out at 2 fold.

For the origin of these results see patent publication US20140242095A1.
